Read-outs that look alike come from different tables or passages of the source.
Experiments:
[1] = molecular target: NE-tethered mCh-lamin A (UniProt P02545); assay: NE/NP ratio of GFP signal in HeLa cells, before and after light
[2] = molecular target: Recombinant SARS-COV-2 Spike RBD (SARS-COV-2) (UniProt P0DTC2)
[3] = molecular target: Recombinant SARS-COV-2 Spike RBD (SARS-COV-2) (UniProt P0DTC2); assay: ELISA on immobilised RBD; read as the value without caffeine
[4] = molecular target: YFP-ORAI1 (UniProt Q96D31); assay: cell-based or functional assay
Sequence of YFP-ORAI1 (Q96D31 whole entry): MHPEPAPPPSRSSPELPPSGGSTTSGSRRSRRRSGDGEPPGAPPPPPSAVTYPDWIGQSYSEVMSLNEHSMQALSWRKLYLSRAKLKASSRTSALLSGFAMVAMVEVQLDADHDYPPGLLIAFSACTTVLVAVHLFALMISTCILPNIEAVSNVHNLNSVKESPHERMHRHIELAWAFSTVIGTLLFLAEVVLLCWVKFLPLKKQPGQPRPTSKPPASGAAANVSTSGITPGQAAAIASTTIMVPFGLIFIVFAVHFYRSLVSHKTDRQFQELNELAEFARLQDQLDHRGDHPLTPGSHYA

Sequence of mCherry-COSMO-STIM1ct (Q13586 other isoform, or with tags, fused parts or gaps): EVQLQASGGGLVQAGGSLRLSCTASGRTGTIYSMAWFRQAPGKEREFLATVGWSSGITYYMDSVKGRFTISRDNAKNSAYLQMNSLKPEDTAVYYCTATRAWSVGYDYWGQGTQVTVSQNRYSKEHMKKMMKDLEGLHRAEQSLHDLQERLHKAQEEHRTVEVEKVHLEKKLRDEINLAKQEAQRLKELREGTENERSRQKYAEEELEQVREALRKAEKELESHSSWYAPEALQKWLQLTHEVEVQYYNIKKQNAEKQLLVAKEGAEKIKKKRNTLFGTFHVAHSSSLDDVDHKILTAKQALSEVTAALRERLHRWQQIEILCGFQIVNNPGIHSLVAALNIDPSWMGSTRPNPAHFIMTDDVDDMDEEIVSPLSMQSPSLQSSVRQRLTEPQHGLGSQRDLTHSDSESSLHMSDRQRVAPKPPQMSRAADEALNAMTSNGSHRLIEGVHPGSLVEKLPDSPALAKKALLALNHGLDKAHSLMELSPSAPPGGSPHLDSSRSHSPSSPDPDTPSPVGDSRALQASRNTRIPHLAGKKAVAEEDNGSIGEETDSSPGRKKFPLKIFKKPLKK

GFP-sunbody variant S0 (LOV2 fused to the N-terminus of LaM8) (VHH)
increase in the NE/NP ratio after photostimulation [1]: 10%

MBP-COSMO-VHH72
apparent binding affinity [2]: 18 nM
apparent binding affinity [3]: 29 nM

mCherry-COSMO-STIM1ct (from UniProt Q13586 233-685)
calcium influx (GCaMP6s) after 1 µM caffeine, activation half-life [4]: 1.63 min

Reference: US20250122266A1, “SMART SINGLE-DOMAIN INTRABODIES WITH PRECISION SWITCHES FOR BIOMEDICAL APPLICATIONS” (THE TEXAS A&M UNIVERSITY SYSTEM, priority 2020, published 2025)
